Measurements: publication PMC7020240

Target: C-FLuc-MESA MEC construct (wild type) (P. falciparum)
Experiment: split reporter

For “N-FLuc-ANK1 fragment 3 (amino acids 823 - 1375) (domain or fragment)”, the fold increase of relative luciferase activity was 200 fold.
